The record followed here is patent publication US20210024646A1 (FUDAN UNIVERSITY, published 2021).

In assay [1] the target is T1, CD73 on the surface of human tumor cells (human, UniProt P21589 27-549).
T1 construct: whole, on cells; One entry for endogenous CD73 on all cell lines; the cell line is named under assay or readout; also called CD73 receptors on the surface of tumor cells; tumor cell CD73
T1 sequence (looked up): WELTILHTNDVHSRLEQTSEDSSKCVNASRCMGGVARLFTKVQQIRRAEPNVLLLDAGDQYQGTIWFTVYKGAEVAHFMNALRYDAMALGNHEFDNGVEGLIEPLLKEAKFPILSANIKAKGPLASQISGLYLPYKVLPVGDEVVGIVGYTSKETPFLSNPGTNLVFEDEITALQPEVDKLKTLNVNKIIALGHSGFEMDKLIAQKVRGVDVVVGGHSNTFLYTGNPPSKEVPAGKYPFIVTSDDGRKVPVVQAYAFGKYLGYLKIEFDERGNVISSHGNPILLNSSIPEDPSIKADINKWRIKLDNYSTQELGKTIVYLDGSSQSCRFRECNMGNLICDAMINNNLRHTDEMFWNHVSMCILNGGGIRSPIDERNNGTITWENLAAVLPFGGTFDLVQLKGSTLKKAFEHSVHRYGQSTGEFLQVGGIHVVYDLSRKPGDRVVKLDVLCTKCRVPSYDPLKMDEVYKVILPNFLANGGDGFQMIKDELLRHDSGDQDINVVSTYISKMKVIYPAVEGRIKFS
Kind of assay: FACS, purified antibody serial dilution, MDA-MB-231 cells. Background: In flow cytometry, cells or beads pass a laser one at a time.

For assay [2], the target named is T1, CD73 on the surface of human tumor cells. Kind of assay: confocal microscopy, 5 µg/mL antibody, MDA-MB-231 cells. The procedure: The antibodies (5 μg/mL) were incubated with the cells at 4° C. for 1 hour, or at 37° C. for 4 hours, and then placed under a laser scanning confocal microscope to observe the results.
MDA-MB-231 cells of 50% density were spread in a laser confocal culture dish, cultured at 37° C. for 16 hours, and then 5 μg/mL CD73 antibody was added. The cells were incubated at 37° C. for 4 hours or 4° C. for 1 hour, washed three times with PBS to remove the antibodies unbound to the cells, and immobilized with 4% paraformaldehyde at room temperature for 30 minutes. The cells were washed three times with PBS and permeabilized with 0.4% Triton X-100 for 10 minutes. The cells were washed three times with PBS, the Lamp-2 (rabbit anti-human) antibody was added and incubated at 37° C. for 1 hour to mark the position of cell lysosome. The unbound antibodies were washed off with PBS, and R-PE-labeled goat anti-human and Alexa Fluor 488-labeled donkey anti-rabbit secondary antibodies were added and incubated at 37° C. for 30 min.

The target in assay [3] is T2, extracellular domain of human CD73 protein (CD73-ECD), C-terminus polyhistidine-tagged (human, UniProt P21589 27-547).
T2 construct: also called Human CD73-ECD; human recombinant CD73 enzyme (CD73 extracellular domain)
T2 sequence: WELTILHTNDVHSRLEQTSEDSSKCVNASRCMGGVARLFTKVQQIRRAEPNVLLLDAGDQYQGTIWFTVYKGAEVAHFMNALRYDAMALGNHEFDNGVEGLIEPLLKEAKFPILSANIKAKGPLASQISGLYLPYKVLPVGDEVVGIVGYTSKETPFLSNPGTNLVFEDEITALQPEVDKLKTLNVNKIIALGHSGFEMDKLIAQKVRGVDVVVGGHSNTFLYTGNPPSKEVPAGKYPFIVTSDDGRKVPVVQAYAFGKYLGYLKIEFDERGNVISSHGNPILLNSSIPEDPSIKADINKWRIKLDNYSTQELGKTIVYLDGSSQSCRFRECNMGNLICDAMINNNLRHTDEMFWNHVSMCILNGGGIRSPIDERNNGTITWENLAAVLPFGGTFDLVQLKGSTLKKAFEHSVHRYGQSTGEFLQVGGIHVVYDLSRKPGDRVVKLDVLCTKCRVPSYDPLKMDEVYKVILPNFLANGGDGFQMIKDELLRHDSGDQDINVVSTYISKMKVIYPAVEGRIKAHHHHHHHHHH
The assay is described as follows: ELISA, coated CD73-ECD.

The target in assay [4] is T2, extracellular domain of human CD73 …. The assay is described as follows: cell-based or functional assay.
For assay [5], the target named is T1, CD73 on the surface of human tumor cells. The assay is described as follows: cell-based or functional assay.
The target is the same in assay [6]. Kind of assay: FACS, 5 µg/mL antibody, CD73-high Calu-1 against CD73-low MDA-MB-453 cells. The procedure: 3×10⁵ tumor cells were mixed well with the antibody (final concentration was 5 μg/mL), and then incubated at 4° C. for 1 h. The cells were washed twice with PBS to remove the unbound primary antibody. Then the target cells were incubated with PE-labeled secondary antibody at 4° C. for 30 minutes. The cells were washed twice with PBS to remove the unbound secondary antibody. Finally, the cells were resuspended in 200 μL PBS and the binding rate was detected with a Fluorescence Activated Cell Sorter (FACS).
The chimeric antibody could specifically recognize and bind tumor cells with CD73 high expression.

Assay [7] shares this target. The assay is described as follows: flow cytometry, MDA-MB-231 cells.
Assay [8] has the same target. Kind of assay: flow cytometry, NCI-H1299 cells.
Assay [9] has the same target. Kind of assay: FACS, MDA-MB-231 cells.
For assay [10] the target is unchanged. The assay is described as follows: FACS, NCI-H1299 cells. The procedure: Alternatively, 100 μL of mAb001c, mAb002c, mAb004c diluted in a 3-fold gradient from 100 nM to 0.046 nM were used as primary antibodies and mixed with 1×10⁵ NCI-H1299 cells suspended in 100 μL RPMI-1640 serum-free medium. Then the obtained solutions were incubated at 4° C. for 1 h, the cells were washed twice with PBS to remove unbound primary antibody, and the target cells were incubated with 200 μL PE-labeled secondary antibody (2 μg/mL) at 4° C. for 30 min. The cells were washed twice with PBS to remove unbound secondary antibody. Finally, the cells were resuspended in 200 μL PBS, and the binding affinities of the test antibodies to CD73 on the cell surface were determined by a flow cytometer.
With reference to the methods in Examples 4-8, the ELISA affinity to CD73-ECD protein, the inhibitory activity on recombinant human CD73 enzyme, the binding affinity to tumor cells, and the inhibitory activity on CD73 enzyme of tumor cells of the above prepared MEDI9447-κ as well as the antibodies mAb001c and mAb002c were detected.

B1: mAb004 (antibody, IgG2b, V domains shown)
VH: EVQLQQSGPELVKPGASVKIPCKASGYTFTDYNMDWVKQSHGKSLEWIGDINPNNGGSVYNQKFKGKATLTVDKSSSTAYMELRSLTSEDTAVYYCGRITGTGYWSFDVWGTGTTVTVSP
VL: DIQMTQSPASLSVSVGETVTITCRASENIYSNLAWYQQKQGKSPQLLVYGATNLAEGVPSRFSGSGLGTQYSLKISSLQSEDFGSYYCQHFWGIPWTFGGGTKLEIK
As to B1, the EC50 in assay [1] amounted to 4.69 nM.

B2: Hu001c-14 (antibody, V domains shown)
VH: QVQLVQSGAEVKKPGASVKVSCKTSGYTFTNYYIYWVRQAPGQRLEWMGWIYPGNLNIKYNEKFKGRVTITADTSASTAYMELSSLRSEDTAVYYCARDDNYAWFAYWGQGTLVTVSS
VL: DIQMTQSPSSLSASVGDRVTITCKASQDVSTAVAWYQQKPGKAPKLLIYWTNTRHTGVPSRFSGSGSGTDHTLTISSLQPEDFATYYCQQHYSTPFTFGQGTKLEIK
notes: Humanized
B2: the binding result in assay [2] and in assay [3] was “binds” throughout.

B3: Hu001c-15 (antibody, V domains shown)
VH: QVQLVQSGAEVKKPGASVKVSCKTSGYTFTNYYIYWVRQAPGQRLEWMGWIYPGNLNIKYNEKFKGRVTITADTSASTAYMELSSLRSEDTAVYYCARDDNYAWFAYWGQGTLVTVSS
VL: DIQMTQSPSSLSASVGDRVTITCKASQDVSTAVAWYQQKPGKSPKLLIYWTNTRHTGVPSRFSGSGSGTDHTLTISSLQPEDFATYYCQQHYSTPFTFGQGTKLEIK
notes: Humanized
B3: the binding result in assay [2] and in assay [3] was “binds” each time.

B4: mAb002c (antibody, V domains shown)
VH: QVQLQQPGAELVKPGASVRLSCKASGYTLTSYWMHWVKKRPGQGLEWIGEINPSNGRSNYNEKFKSKATLTVDRSSSTVYMQLGSLTSEDSAVYYCARRGVSGNYFDYWGQGTTLTVSS
VL: DIKMTQSPSSMYASLGERVTMTCKASQDINTYLSWFQQKPGKSPKTLIYRSNILVDGVPSRFSGSRSGQDYYLTITSLEYEDMGIYYCLQYDEFPYTFGGGTKLELK
notes: also called human-mouse chimeric antibody mAb002c
Turning to B4, the “IC50, inhibition of AMP hydrolysis by recombinant human CD73 (CellTiter-Glo)” value in assay [4] was 0.031 nM. Besides, in [5], the “Calu-1 CD73 Enzyme Inhibition IC50” value came out at 0.281 nM. In assay [5], the “MDA-MB-231 CD73 Enzyme Inhibition IC50” value came to 0.791 nM. Also, in assay [5], the “NCI-H1299 CD73 Enzyme Inhibition IC50” value is 0.191 nM. Also, the “difference in binding rate (MFI), Calu-1 against MDA-MB-453” value in assay [6] was 978 times. The EC50 in assay [7] turned out to be 0.36 nM; in assay [8], 0.39 nM; in assay [3] it was 0.016 nM; in [9], 0.356 nM; in assay [10], 0.391 nM.

B5: mAb002 (antibody, IgG1, V domains shown)
VH: QVQLQQPGAELVKPGASVRLSCKASGYTLTSYWMHWVKKRPGQGLEWIGEINPSNGRSNYNEKFKSKATLTVDRSSSTVYMQLGSLTSEDSAVYYCARRGVSGNYFDYWGQGTTLTVSS
VL: DIKMTQSPSSMYASLGERVTMTCKASQDINTYLSWFQQKPGKSPKTLIYRSNILVDGVPSRFSGSRSGQDYYLTITSLEYEDMGIYYCLQYDEFPYTFGGGTKLELK
B5 showed an EC50 in [1] of 0.65 nM.

B6: mAb001 (antibody, IgG1, V domains shown)
VH: QVQLQQSGPELVKPGASVRISCKTSGYTFTNYYIYWVKQRPGQGLEWIGWIYPGNLNIKYNEKFKGKSTLTADKSSSTAFMQLSSLTSEDSAVYFCARDDNYAWFAYWGQGTLVTVSS
VL: DIVMTQSHKFMSTSIGDRVSITCKASQDVSTAVAWYQQKPGQSPKLLIYWTNTRHTGVPDRFTGNTSGTEHTLTISSVQAEDLALYYCQQHYSTPFTFGSGTTLEIK
In [1], B6 yielded an EC50 of 1.24 nM.

The term EC50 denotes the concentration that produces a half-maximal response.
